The text below walks through data of patent US20180371086A1.

Common to all, as to test: cell-based or functional assay
Assay [1] deals with Env of 92 subtype B viruses.
Assay [2] concerns the target HIV-1 Env (gp120) of 4 primary HIV-1 isolates or molecular clones on infected CEM-NKr-CCR5-LucR CD4 T cells.
In assay [3] the target is 22 primary HIV-1 isolates or clones (mean over all viruses of Table 13).

Numbering of substitutions follows the chain as printed.

B1: PGT121.56 (antibody, human IgG1, lambda)
heavy: QMQLQESGPGLVKPSETLSLTCSVSGASISDSYWSWIRRSPGKGLEWIGYVHKSGDTNYSPSLKSRVNLSLDTSKNQVSLSLVAATAADSGKYYCARTLHGRRIYGIVAFNEWFTYFYMDVWGNGTQVTVSSASTKGPSVFPLAPSSKSTSGGTAALGCLVKDYFPEPVTVSWNSGALTSGVHTFPAVLQSSGLYSLSSVVTVPSSSLGTQTYICNVNHKPSNTKVDKKVEPKSCDKTHTCPPCPAPELLAGPDVFLFPPKPKDTLMISRTPEVTCVVVDVSHEDPEVKFNWYVDGVEVHNAKTKPREEQYNSTYRVVSVLTVLHQDWLNGKEYKCKVSNKALPLPEEKTISKAKGQPREPQVYTLPPSREEMTKNQVSLTCLVKGFYPSDIAVEWESNGQPENNYKTTPPVLDSDGSFFLYSKLTVDKSRWQQGNVFSCSVLHEALHSHYTQKSLSLSPGK
light: not shown
For the molecule B1, in assay [1], the Coverage (%) was 62% and the Median IC95 (neutralization) worked out at 0.265 µg/mL.

B2: PGT121.60 hIgG1/hLambda (antibody)
heavy: B1 heavy with S60N, N68H, V83T, A84G, A85V, N124T
light: not shown
Regarding B2, in assay [1], the Coverage (%) was found to be 59.8% and the Median IC95 (neutralization) worked out at 0.177 µg/mL. Moreover, in assay [2], the EC50 of killing infected cells, median is above 100 µg/mL and the proportion of infected cells killed (Emax), median worked out at 18%. In assay [3], this molecule came in with an EC50 (µg/mL), killing of HIV-infected cells (Mean; mean over all viruses) of 1.03 µg/mL and an Emax, killing of HIV-infected cells (Mean; mean over all viruses) of 56%.
